Experimental findings from patent publication US20260137799A1, “ANTI-MUC1* ANTIBODY DRUG COMPLEXES AND USES THEREOF” (Minerva Biotechnologies Corporation, priority 2023, published 2026) are described below.

In experiment [1] the test system is DU-145. The experiment is described as follows: xCELLigence impedance cytotoxicity, DU-145. The following applies: 40-120 hours incubation. It counts as cell-based, human. As to the method: (§1) An xCELLigence RTCA MP Instrument (Agilent) was used to assess real-time killing of target cancer cells). In the xCELLigence system, target cancer cells, which are adherent, are plated onto electrode array 96-well plates. Adherent cells insulate the electrode and increase the impedance. The number of adherent cancer cells is directly proportional to impedance. […] Therefore, increasing impedance reflects the growth of the cancer cells and decreasing impedance reflects the killing of the cancer cells.
(§2) Target Cancer cells (Table 9) were seeded onto a multi-electrode well plate at a density of 5000 cells/well (100 μL of a 50,000 cells/mL stock) and incubated for 24 hr in a 37° C./5% CO2 incubator. ADCs were prepared as a 2× solution in corresponding growth media and 100 μL of each concentration was added to target cells. As a positive control (100% cell killing) cells were treated with either 1% triton or 1 μM Taxol instead of ADC. After 40-120 hours incubation in a 37° C./5% CO2 incubator cell killing was assessed. In this assay, impedance is measured in real-time. When the adherent cancer cells are killed and come off the electrode surface, impedance (insulation) decreases.

In experiment [2] the test system is H1975. The experiment is described as follows: PrestoBlue live/dead cell assay, H1975. The following applies: Presto Blue; 72-120 hour incubation. It counts as cell-based, human. The protocol:
(§3) Another method of measuring the killing activity of ADCs against target cancer cells is to use the PrestoBlue live/dead cell assay (ThermoFisher). Target cancer cells were seeded in a black-walled, clear-bottom 96-well tissue culture plate at a density of 5000 cells/well (100 μL of a 50,000 cells/mL stock) and incubated overnight in a 37° C./5% CO2 incubator. ADCs were prepared as a 2× solution in corresponding cancer cell growth media and 100 μL of each concentration was added to target cancer cells. As a positive control (100% killing) cancer cells were treated with 1 μM Taxol instead of ADC. After 72 hour-120 hour incubation in a 37° C./5% CO2 incubator, cell viability was measure by fluorescence using the PrestoBlue HS assay (ThermoFisher). Briefly, after the incubation period, 20 μL of PrestoBlue HS solution was added. Fluorescence (Ex 560 nm/Em 590 nm) was recorded after 30-90 min. incubation using a Tecan plate reader. Percentage viability was determined by PrestoBlue HS staining and normalized to 1 μM taxol treated cells.
(§4) The normalized fluorescence values were imported into the graph program, Sigma Plot, data plotted as ADC concentration versus normalized fluorescence signal and curve fitted using a four-parameter Hill equation: f=y0+a*x^b/(c^b+x^b) to calculate IC50 values. IC50 values for the ADCs were generally consistent between the xCELLigence and Presto Blue assays.

The test system of experiment [3] is T47D. The experiment can be described thus: xCELLigence impedance cytotoxicity, T47D. The format is cell-based, human. The following applies: xCELLigence; 40-120 hours incubation; read-out: IC50, T47D. In short, it runs like this: (§5)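 Adherent target cells plated at 5000/well on electrode plates were grown 24 h, then exposed to serially diluted ADCs in growth medium at 37° C/5% CO2. Killing was followed as real-time impedance loss over 40-120 h, normalized to 1% triton or 1 μM Taxol as 100% kill.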

The test system of experiment [4] is HPAF-II MUC1*. The experiment can be described thus: xCELLigence impedance cytotoxicity, HPAF-II MUC1*. The format is cell-based, human. The following applies: xCELLigence; 40-120 hours incubation; read-out: IC50, HPAF-II MUC1*. The protocol: as §1, §2
Experiment [5] relates to T47D xenograft tumors. The experiment can be described thus: T47D breast cancer xenograft. The format is in vivo, NOD/SCID mice. The settings on record: intraperitoneal; MMAE ADCs 5-10 mg/kg Days 7, 14, 20; deruxtecan/exatecan ADCs 20 mg/kg weekly x7. The protocol: (§6) For breast cancer xenografts, female NOD/SCID mice (weight 18-22 g, 6-8 weeks old, Charles River Laboratories) previously implanted with a 90-day release estrogen pellet (Innovative Research Laboratories) were subcutaneously injected under isoflurane anesthesia (ISOTHESIA, 250 ml (HENRY SCHEIN, NDC: 11695-6776-2) with one million luciferase-positive T47D breast cancer cells expressing low levels of MUC1*(ATCC) or one million luciferase-positive T47D-MUC1* cells overproducing MUC1* using a BD 26G Insulin Syringes with Detachable Needle (Fisher cat: 329652) or BD 28G Lo-Dose U-100 Insulin Syringes (Fisher cat: 329461).
(§7) Tumor volume was measured from bioluminescence images acquired with a Xenogen IVIS-Spectrum system (Perkin Elmer). Mice were injected […] into the scruff of the neck with 150 ul, 30 mg/mL, D-Luciferin (XenoLight™ D-Luciferin Potassium Salt; PerkinElmer P/N 122799), placed under isoflurane anesthesia, and photographed within 10 minutes of the Leciferin injection. Data was expressed graphically as Radiance (photons/sec) as a function of days post-tumor implantation.
(§8) Tumor mass was determined from tumors excised from mice receiving T47D cells on Day 95 and mice receiving T47D-MUC1* cells on Day 96. […]

The subject of experiment [6] is T47D-MUC1* xenograft tumors. The experiment is described as follows: T47D-MUC1* breast cancer xenograft. The format is in vivo, NOD/SCID mice. The following applies: intraperitoneal; MMAE ADCs 5-10 mg/kg Days 7, 14, 20; deruxtecan/exatecan ADCs 20 mg/kg weekly x7. The protocol:
as §6, §7, §8

The subject of experiment [7] is T47D-MUC1* 15%. The experiment is described as follows: PrestoBlue live/dead cell assay, T47D-MUC1* 15%. It counts as cell-based, human. The settings on record: Presto Blue; 72-120 hour incubation. As to the method:
as §3, §4

In experiment [8] the test system is T47D-MUC1*. The experiment is described as follows: PrestoBlue live/dead cell assay, T47D-MUC1*. The format is cell-based, human. The settings on record: Presto Blue; 72-120 hour incubation. The protocol:
as §3, §4

Experiment [9] deals with T47D-MUC1*. The experiment is described as follows: xCELLigence impedance cytotoxicity, T47D-MUC1*. The format is cell-based, human. The following applies: xCELLigence; 40-120 hours incubation; read-out: IC50, T47D-MUC1*. As to the method:
as §1, §2

Experiment [10] has as its system HPAF-II. The experiment can be described thus: xCELLigence impedance cytotoxicity, HPAF-II. The settings on record: xCELLigence; 40-120 hours incubation; read-out: IC50, HPAF-II. It counts as cell-based, human. The protocol:
as §1, §2

The subject of experiment [11] is HPAFII-MUC1*. The experiment can be described thus: PrestoBlue live/dead cell assay, HPAFII-MUC1*. It counts as cell-based, human. The following applies: Presto Blue; 72-120 hour incubation. The protocol:
as §3, §4

In experiment [12] the test system is T47D-MUC1* 15%. The experiment can be described thus: xCELLigence impedance cytotoxicity, T47D-MUC1* 15%. The format is cell-based, human. The following applies: 40-120 hours incubation. As to the method: as §1, §2
The subject of experiment [13] is HPAFII. The experiment can be described thus: PrestoBlue live/dead cell assay, HPAFII. The format is cell-based, human. The following applies: Presto Blue; 72-120 hour incubation. As to the method:
as §3, §4

Experiment [14] relates to DU-145. The experiment is described as follows: PrestoBlue live/dead cell assay, DU-145. The settings on record: Presto Blue; 72-120 hour incubation. It counts as cell-based, human. The protocol: as §3, §4
Experiment [15] has as its system NCI-H1975. The experiment is described as follows: xCELLigence impedance cytotoxicity, NCI-H1975. It counts as cell-based, human. The settings on record: xCELLigence; 40-120 hours incubation; read-out: IC50, NCI-H1975. In short, it runs like this:
as §5

Experiment [16] deals with T47D. The experiment can be described thus: PrestoBlue live/dead cell assay, T47D. The settings on record: Presto Blue; 72-120 hour incubation. It counts as cell-based, human. The protocol:
as §3, §4

B1: C2 MC-PEG8-VA-PAB exatecan (conjugate, listed as Mus sp.)
heavy: EVQLEESGGGLVKPGGSLKLSCAASGFTFSGYAMSWVRQTPEKRLEWVATISSGGTYIYYPDSVKGRFTISRDNAKNTLYLQMSSLRSEDTAMYYCARLGGDNYYEYFDVWGAGTTVTVSSAKTTPPSVYAKTTPPSVYPLAPGSAAQTNSMVTLGCLVKGYFPEPVTVTWNSGSLSSGVHTFPAVLQSDLYTLSSSVTVPSSTWPSETVTCNVAHPASSTKVDKKIVPRDCGCKPCICTVPEVSSVFIFPPKPKDVLTITLTPKVTCVVVDISKDDPEVQFSWFVDDVEVHTAQTQPREEQFNSTFRSVSELPIMHQDWLNGKEFKCRVNSAAFPAPIEKTISKTKGRPKAPQVYTIPPPKEQMAKDKVSLTCMITDFFPEDITVEWQWNGQPAENYKNTQPIMDTDGSYFVYSKLNVQKSNWEAGNTFTCSVLHEGLHNHHTEKSLSHSPGK
light: DIVITQSTASLGVSLGQRATISCRASKSVSTSGYSYMHWYQQRPGQPPKLLIYLASNLESGVPARFSGSGSGTDFTLNIHPVEEEDAATYYCQHSRELPFTFGGGTKLEIKRADAAPTVSADAAPTVSIFPPSSEQLTSGGASVVCFLNNFYPKDINVKWKIDGSERQNGVLNSWTDQDSKDSTYSMSSTLTLTKDEYERHNSYTCEATHKTSTSPIVKSFNRNEC
modifications: MC-PEG8-VA-PAB-exatecan
notes: ADC: antibody C2 conjugated via MC-PEG8-VA-PAB linker to exatecan
For the molecule B1, the IC50 is 163 nM in experiment [1]; 19 nM in [2]; 112 nM in experiment [3]; 72 nM in [4]; 25 nM in experiment [7]; 8 nM in experiment [8]. For the same molecule, the IC50 was determined as 6.2 nM in experiment [9]; 86 nM in experiment [10]; 62 nM in experiment [11]; 20 nM in experiment [12]; 180 nM in experiment [13]; 160 nM in experiment [14]. Besides, the half-inhibitory concentration (IC50) in experiment [15] is 207 nM; in experiment [16], 153 nM. For the same molecule, in experiment [5], the “growth of T47D xenograft tumors” value is “inhibit the growth”. Besides, the “growth of T47D-MUC1* xenograft tumors” value in [6] is “inhibit the growth”.

A word on the IC50: it is the point on the concentration scale where inhibition reaches its midpoint.
